Results reported in the supplement of paper PMC10126150.
± gives the standard deviation of the averaged measurements.

Test system: ATP
Experiment: switch fluorescence ratio, 500 uM ATP over buffer (Cy3 cluster intensity, sum of 5 cycles each) (fold (ratio)); higher = stronger signal-on switching upon ATP binding; sequences stand for … in TCGTCGGCAGCGTCAGATGTGTATAAGAGACAGTTTTTTTTTTTTTTTTTTTTTTTTT…TC
Settings: aptamer strand: ATP DNA aptamer (quencher-CACCTGGGGGAGTATTGCGGAGGAAGG + anchor), 100 nM annealed; ATP concentration: 500 uM
Procedure, shortened: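 Imaging in selection buffer was followed by imaging after 15 min with 500 uM ATP at 22 °C, for Cy3-labelled switching-strand clusters annealed to 100 nM quencher-labelled ATP aptamer on a modified Illumina MiSeq flow-cell. Five of these buffer/ATP cycles ran, separated by NaOH stripping and re-annealing. The fluorescence ratio per cluster is summed target-cycle over summed buffer-cycle Cy3 intensity, averaged per switch-domain sequence; clusters outside 100-1000 RFU were removed.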
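Note: ATP exposure 15 min at 22 °C before imaging.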

Sequence | switch fluorescence ratio
TATTTAATCA | 1.008 ± 0.0097
TTTATACCTA | 1.03 ± 0.023
CGTGTAGGTT | 1.02 ± 0.021
GGGCTTTTTT | 0.98 ± 0.018
GCCCATTTCT | 1.03 ± 0.039
GGACAAGGGG | 0.962 ± 0.038
AATAAGGGGG | 1.01 ± 0.064
TGTGAGTTAG | 1 ± 0.025
GCATTAGGTT | 1.03 ± 0.019
AAACTGTATT | 1.08 ± 0.019
TGCTTGGGGG | 0.979 ± 0.016
TATTATGACC | 1.01 ± 0.043
AAAGATGGGA | 1.003 ± 0.0081
TATAATGCGC | 0.995 ± 0.034
TTTACGAGTG | 1.03 ± 0.019
CTGTAGATTG | 0.983 ± 0.019
TGAGCACGGG | 1.03 ± 0.02
TCTAAATAGG | 0.9908 ± 0.0032
TCATAGGTTT | 0.974 ± 0.038
GTAATTAATT | 0.978 ± 0.025
ATCAGCAGGC | 1.6 ± 0.045
TGGGATCAGT | 0.99 ± 0.021
TGAGGTATCT | 1.007 ± 0.0091

Sequence | switch fluorescence ratio
ACCTTGGTTG | 0.9609 ± 0.0054
GAAAGCGCGT | 0.965 ± 0.028
TGATAAGAGT | 1.01 ± 0.011
GGGAGGATGT | 0.997 ± 0.022
TTCGGGAGAG | 0.996 ± 0.071
TGATAATGTT | 0.997 ± 0.014
CTTGCTGGTT | 0.999 ± 0.028
CCGAACTGGT | 1.1 ± 0.05
CACTGGTGGC | 1.06 ± 0.022
GAGGGGAACT | 0.995 ± 0.021
ATCATTTGTC | 1.022 ± 0.0092
CCTACTTCCA | 1.103 ± 0.0013
TCGTTTGGTA | 0.958 ± 0.027
AGGATAAGGA | 0.987 ± 0.029
GAAAAAATCC | 1.29 ± 0.34
TATAATAGTT | 0.965 ± 0.037
AGCGGCCCGG | 1.02 ± 0.017
TCTTCGTTTT | 1.23 ± 0.32
TAATGAGTCA | 1 ± 0.081
GTTTATGCAC | 1.06 ± 0.084
GACTTATTAT | 1.001 ± 0.0041
CGGGGACAGA | 0.984 ± 0.041
ATATCGTGCA | 0.9972 ± 0.006

Sequence | switch fluorescence ratio
GGGGCCGATA | 1.04 ± 0.079
CAGGGTGAGT | 1.01 ± 0.022
AAAAGAATAT | 1 ± 0.019
TATTAGTCAG | 1 ± 0.023
GTTCTTGGAG | 0.9991 ± 0.0031
CGCAATGGGG | 2.98 ± 0.53
CAGCTGGCGC | 0.9949 ± 0.0083
GGATGATTTG | 0.968 ± 0.025
GAGGTAGGTC | 0.9945 ± 0.0019
TGGGTGTCGC | 0.9672 ± 0.0039
TAATGGTT | 0.979 ± 0.011
TTTAATAAAG | 1.02 ± 0.041
GTGGAAATGG | 1.01 ± 0.022
AGCTGGTCCG | 1.02 ± 0.022
GATGATTTGG | 1.02 ± 0.021
GTGCTCAGGG | 1.02 ± 0.077
TTACATTTTA | 1.02 ± 0.015
TTGGTTATCG | 0.97068 ± 0.00069
TTTTTTGGG | 0.9686 ± 0.0027
TAAACCGATG | 1.21 ± 0.048
ATTTTGGCTT | 0.963 ± 0.037
ATGGGGAATA | 1.03 ± 0.0059
GAGGGGAGTA | 1 ± 0.033

Sequence | switch fluorescence ratio
ATCACGATGG | 1.03 ± 0.019
ATTTGGTAAA | 0.9859 ± 0.009
CAGATACAAG | 1.036 ± 0.0095
CGTTTGGACG | 0.989 ± 0.079
AGCCTGGGGA | 1.001 ± 0.0018
ATGCTATGGT | 0.987 ± 0.013
CCACCGGGGA | 1.85 ± 0.49
GAGTACTAGA | 1.02 ± 0.018
TTTACGAGTA | 1.01 ± 0.012
TCCGAGGGGT | 1.67 ± 0.91
GATTTAGGAC | 0.967 ± 0.044
ACGTAATTTT | 1.17 ± 0.03
AGATGACGTT | 1.01 ± 0.046
TCGTTGATTT | 1.016 ± 0.01
TGTTAAATTT | 1.01 ± 0.045
CGGCACGTTA | 1.06 ± 0.025
TTGGGAAAGG | 1.002 ± 0.0053
ACAAACGCTG | 1.28 ± 0.0027
AGACTTTTGG | 0.987 ± 0.011
GCTAAGTCGG | 0.982 ± 0.0085
TTAAAGAATT | 1.003 ± 0.0084
TTGGTTTATC | 1 ± 0.015
ATACTTAGGT | 1.07 ± 0.1

Sequence | switch fluorescence ratio
ACATACGAGT | 1.38 ± 0.029
ACTTTGATGT | 1.01 ± 0.012
GGTCGTAGCC | 0.9719 ± 0.0084
CGGGGGGCCA | 1.016 ± 0.0048
TTTTGACTTA | 1.04 ± 0.034
ATACGAGGTC | 1.01 ± 0.03
ATTGTTGCTG | 0.993 ± 0.061
TTTTTCCCAT | 1.03 ± 0.014
TCATAAAGGG | 1.03 ± 0.0064
AATGCGGGGT | 1.13 ± 0.16
ATTTTGTCCA | 1.02 ± 0.021
TTACCTTTGT | 1.05 ± 0.024
TTAAGTTCTT | 0.996 ± 0.019
GACTTTGTTC | 0.983 ± 0.012
CCACTAGGGC | 1.09 ± 0.017
TGGGAAAACG | 1.05 ± 0.078
ACAGGAAGGG | 1 ± 0.01
GCAAGAACGC | 1.096 ± 0.0023
GGGGATAGAT | 0.982 ± 0.027
TCACGTTTAG | 1.03 ± 0.011
TCCTAACTTG | 1.01 ± 0.014
AAAGAGGGTA | 0.963 ± 0.055
ACAGGCAGGA | 1.01 ± 0.022

Sequence | switch fluorescence ratio
CGTATACTGA | 1.01 ± 0.055
TGTCGGATCG | 1 ± 0.013
CAAACGCGCG | 0.997 ± 0.045
AGGAGTGGAG | 0.996 ± 0.013
GAAGTGTGAA | 1 ± 0.022
ATAATTCTAT | 0.9819 ± 0.008
CAGGGGCGTG | 0.9921 ± 0.0079
TTGTGTATGC | 0.958 ± 0.1
TCGGAGTCTC | 1.127 ± 0.0029
AGTGTGGCCA | 1.02 ± 0.016
TCCAGGGCGA | 1.16 ± 0.13
GGGTCCAAGG | 1.03 ± 0.029
ATGGAACCTT | 1.28 ± 0.34
ACGGGGTATT | 0.996 ± 0.028
AACTCGTGGG | 0.975 ± 0.026
GCAGACGGTG | 1.05 ± 0.013
TGGCCAAATT | 1.03 ± 0.019
ATTTAACGGG | 1.006 ± 0.0056
GGTCACGGCA | 1 ± 0.013
GTGTTTTTTG | 0.968 ± 0.019
CAGGAAGGGA | 0.9958 ± 0.0064
TAATGGTCGG | 0.985 ± 0.053
TAAGGCTGTG | 1 ± 0.017

Sequence | switch fluorescence ratio
AACGGAGTGC | 1 ± 0.045
GGTGAAGGTA | 0.929 ± 0.045
TGATTGTAAT | 0.9655 ± 0.0069
GAGTGCCGGT | 1.02 ± 0.023
AAAGATGAAT | 1.04 ± 0.011
GGCATAAGGG | 1.03 ± 0.05
AGTAGAATGG | 1.001 ± 0.0004
GTTCGGGGGT | 0.986 ± 0.025
TGCGTTTGTT | 0.996 ± 0.029
GTGATTCAGG | 0.989 ± 0.029
AGTCTAAGTG | 0.956 ± 0.021
GAGATTCGCC | 1.02 ± 0.054
CGGCTTAAGG | 1.01 ± 0.019
TATTTAGGAC | 0.99 ± 0.028
TTGTGGGCGA | 0.9947 ± 0.0014
TCCGTTGATA | 1.165 ± 0.01
TACTATATGG | 1.03 ± 0.011
CATGGGCTAG | 0.997 ± 0.057
CAGTTGCTCA | 1.012 ± 0.0097
